From the supplement of paper PMC11246515
± gives the standard deviation of the averaged measurements.

Assay: total protein half-life in vivo (active degradation + dilution); higher = more stable protein
[1] = E. coli NCM3722 delta-clpP delta-lon delta-hslV, growth: N-lim chemostat, doubling time 6 h
[2] = E. coli NCM3722 delta-clpP, growth: N-lim chemostat, doubling time 6 h
[3] = E. coli NCM3722 delta-hslV, growth: N-lim chemostat, doubling time 6 h
[4] = E. coli NCM3722 delta-lon, growth: N-lim chemostat, doubling time 6 h
[5] = E. coli NCM3722 delta-smpB, growth: N-lim chemostat, doubling time 6 h
[6] = wild type E. coli NCM3722, growth: C-lim chemostat, doubling time 3 h
[7] = wild type E. coli NCM3722, growth: C-lim chemostat, doubling time 6 h
[8] = wild type E. coli NCM3722, growth: C-lim chemostat, doubling time 12 h
[9] = wild type E. coli NCM3722, growth: N-lim chemostat, doubling time 6 h
[10] = wild type E. coli NCM3722, growth: N-lim chemostat, doubling time 12 h
[11] = wild type E. coli NCM3722, growth: P-lim chemostat, doubling time 6 h
[12] = wild type E. coli NCM3722, growth: P-lim chemostat, doubling time 12 h

In the case of “MTEQQKLTFTALQQRLDSLMLRDRLRFSRRLHGVKKVKNPDAQQAIFQEMAKEIDQAAGKVLLREAARPEITYPDNLPVSQKKQDILEAIRDHQVVIVAGETGSGKTTQLPKICMELGRGIKGLIGHTQPRRLAARTVANRIAEELKTEPGGCIGYKVRFSDHVSDNTMVKLMTDGILLAEIQQDRLLMQYDTIIIDEAHERSLNIDFLLGYLKELLPRRPDLKIIITSATIDPERFSRHFNNAPIIEVSGRTYPVEVRYRPIVEEADDTERDQLQAIFDAVDELSQESHGDILIFMSGEREIRDTADALNKLNLRHTEILPLYARLSNSEQNRVFQSHSGRRIVLATNVAETSLTVPGIKYVIDPGTARISRYSYRTKVQRLPIEPISQASANQRKGRCGRVSEGICIRLYSEDDFLSRPEFTDPEILRTNLASVILQMTALGLGDIAAFPFVEAPDKRNIQDGVRLLEELGAITTDEQASAYKLTPLGRQLSQLPVDPRLARMVLEAQKHGCVREAMIITSALSIQDPRERPMDKQQASDEKHRRFHDKESDFLAFVNLWNYLGEQQKALSSNAFRRLCRTDYLNYLRVREWQDIYTQLRQVVKELGIPVNSEPAEYREIHIALLTGLLSHIGMKDADKQEYTGARNARFSIFPGSGLFKKPPKWVMVAELVETSRLWGRIAARIDPEWVEPVAQHLIKRTYSEPHWERAQGAVMATEKVTVYGLPIVAARKVNYSQIDPALCRELFIRHALVEGDWQTRHAFFRENLKLRAEVEELEHKSRRRDILVDDETLFEFYDQRISHDVISARHFDSWWKKVSRETPDLLNFEKSMLIKEGAEKISKLDYPNFWHQGNLKLRLSYQFEPGADADGVTVHIPLPLLNQVEESGFEWQIPGLRRELVIALIKSLPKPVRRNFVPAPNYAEAFLGRVKPLELPLLDSLERELRRMTGVTVDREDWHWDQVPDHLKITFRVVDDKNKKLKEGRSLQDLKDALKGKVQETLSAVADDGIEQSGLHIWSFGQLPESYEQKRGNYKVKAWPALVDERDSVAIKLFDNPLEQKQAMWNGLRRLLLLNIPSPIKYLHEKLPNKAKLGLYFNPYGKVLELIDDCISCGVDKLIDANGGPVWTEEGFAALHEKVRAELNDTVVDIAKQVEQILTAVFNINKRLKGRVDMTMALGLSDIKAQMGGLVYRGFVTGNGFKRLGDTLRYLQAIEKRLEKLAVDPHRDRAQMLKVENVQQAWQQWINKLPPARREDEDVKEIRWMIEELRVSYFAQQLGTPYPISDKRILQAMEQISG”, the “total protein half-life in vivo” value [1] is reported as 6.34 ± 0.51 h, the “total protein half-life in vivo” value [2] is reported as 6.5 ± 1.2 h and the “total protein half-life in vivo” value [3] is reported as 5.99 ± 0.13 h. The “total protein half-life in vivo” value [4] was 5.89 ± 0.89 h, the “total protein half-life in vivo” value [5] was 5.46 ± 0.8 h and the “total protein half-life in vivo” value [6] was 3.53 ± 0.13 h. The “total protein half-life in vivo” value [7] was 6.34 ± 0.23 h, the “total protein half-life in vivo” value [8] was 12.8 ± 1.3 h and the “total protein half-life in vivo” value [9] was 5.66 ± 0.1 h. The “total protein half-life in vivo” value [10] was 11.2 ± 0.78 h, the “total protein half-life in vivo” value [11] was 5.71 ± 0.12 h and the “total protein half-life in vivo” value [12] was 11.3 ± 0.18 h.
In the case of “MKRMIALDGAQGEGGGQILRSALSLSMITGQPFTITSIRAGRAKPGLLRQHLTAVKAATEICGATVEGAELGSQRLLFRPGTVRGGDYRFAIGSAGSCTLVLQTVLPALWFADGPSRVEVSGGTDNPSAPPADFIRRVLEPLLAKIGIHQQTTLLRHGFYPAGGGVVATEVSPVASFNTLQLGERGNIVQMRGEVLLAGVPRHVAEREIATLAGSFSLHEQNIHNLPRDQGPGNTVSLEVESENITERFFVVGEKRVSAEVVAAQLVKEVKRYLASTAAVGEYLADQLVLPMALAGAGEFTVAHPSCHLLTNIAVVERFLPVRFSLIETDGVTRVSIE”, the “total protein half-life in vivo” value [1] is reported as 5.12 ± 0.25 h, the “total protein half-life in vivo” value [2] is reported as 4.65 h and the “total protein half-life in vivo” value [3] is reported as 5.05 h. The “total protein half-life in vivo” value [4] was 4.457 ± 0.014 h, the “total protein half-life in vivo” value [5] was 4.17 ± 0.09 h and the “total protein half-life in vivo” value [6] was 2.59 h. For the same substance, the “total protein half-life in vivo” value [7] was 5.6 ± 0.12 h, the “total protein half-life in vivo” value [8] was 11.3 ± 1.7 h and the “total protein half-life in vivo” value [9] was 4.52 ± 0.4 h. The “total protein half-life in vivo” value [11] was 5.28 ± 0.24 h and the “total protein half-life in vivo” value [12] was 10.9 h.
For “MDQVVIFKQIFDKVRNDLNYQWFYSELKRHNVSHYIYYLATENVHIVLKNDNTVLLKGLKNIVSVKFSKDRHLIETTSNKLKSREITFQEYRRNLAKAGVFRWVTNIHEQKRYYYTFDNSLLFTESIQKTTQILPR”, the “total protein half-life in vivo” value [7] was 4.33 h and the “total protein half-life in vivo” value [12] was 5.25 h.
With “MTMKKLLIIILPVLLSGCSAFNQLVERMQTDTLEYQCDEKPLTVKLNNPRQEVSFVYDNQLLHLKQGISASGARYTDGIYVFWSKGDEATVYKRDRIVLNNCQLQNPQR” the “total protein half-life in vivo” value [1] was 5.8 ± 0.46 h, the “total protein half-life in vivo” value [2] was 6.62 ± 0.99 h and the “total protein half-life in vivo” value [3] was 6.27 h. The “total protein half-life in vivo” value [4] was 6.49 ± 0.45 h, the “total protein half-life in vivo” value [5] was 5.45 ± 0.23 h and the “total protein half-life in vivo” value [6] was 3.27 ± 0.96 h. For the same substance, the “total protein half-life in vivo” value [7] was 6.52 ± 1.3 h, the “total protein half-life in vivo” value [8] was 13.5 ± 0.37 h and the “total protein half-life in vivo” value [10] was 14.4 ± 0.55 h. The “total protein half-life in vivo” value [11] was 6.32 ± 0.75 h and the “total protein half-life in vivo” value [12] was 13.8 ± 1.6 h.
In the case of “MRLFNWRRQAVLNAMPLVKPDQVRTPWHEFWRRFRRQHMAMTAALFVILLIVVAIFARWIAPYDAENYFDYDNLNNGPSLQHWFGVDSLGRDIFSRVLVGAQISLAAGVFAVFIGAAIGTLLGLLAGYYEGWWDRLIMRICDVLFAFPGILLAIAVVAVLGSGIANVIIAVAIFSIPAFARLVRGNTLVLKQQTFIESARSIGASDMTVLLRHILPGTVSSIVVFFTMRIGTSIISAASLSFLGLGAQPPTPEWGAMLNEARADMVIAPHVAVFPALAIFLTVLAFNLLGDGLRDALDPKIKG”, the “total protein half-life in vivo” value [2] is reported as 6.63 h, the “total protein half-life in vivo” value [3] is reported as 6.48 ± 0.35 h and the “total protein half-life in vivo” value [5] is reported as 6.59 ± 0.99 h. The “total protein half-life in vivo” value [6] was 3.08 ± 0.21 h, the “total protein half-life in vivo” value [7] was 6.44 ± 0.14 h and the “total protein half-life in vivo” value [8] was 13.6 h. The “total protein half-life in vivo” value [9] was 6.817 ± 0.047 h, the “total protein half-life in vivo” value [10] was 12.4 ± 1.2 h and the “total protein half-life in vivo” value [11] was 6.55 ± 0.52 h.
For P0CK95, the “total protein half-life in vivo” value [6] was 2.75 h, the “total protein half-life in vivo” value [11] was 6.26 ± 0.39 h and the “total protein half-life in vivo” value [12] was 13 ± 0.41 h.
In the case of “MKFTQRLSLRVRLTLIFLILASVTWLLSSFVAWKQTTDNVDELFDTQLMLFAKRLSTLDLNEINAADRMAQTPNRLKHGHVDDDALTFAIFTHDGRMVLNDGDNGEDIPYSYQREGFADGQLVGEDDPWRFVWMTSPDGKYRIVVGQEWEYREDMALAIVAGQLIPWLVALPIMLIIMMVLLGRELAPLNKLALALRMRDPDSEKPLNATGVPSEVRPLVESLNQLFARTHAMMVRERRFTSDAAHELRSPLTALKVQTEVAQLSDDDPQARKKALLQLHSGIDRATRLVDQLLTLSRLDSLDNLQDVAEIPLEDLLQSSVMDIYHTAQQAKIDVRLTLNAHSIKRTGQPLLLSLLVRNLLDNAVRYSPQGSVVDVTLNADNFIVRDNGPGVTPEALARIGERFYRPPGQTATGSGLGLSIVQRIAKLHGMNVEFGNAEQGGFEAKVSW”, the “total protein half-life in vivo” value [1] is reported as 5.9 ± 0.21 h, the “total protein half-life in vivo” value [2] is reported as 6.26 ± 0.56 h and the “total protein half-life in vivo” value [3] is reported as 6.38 ± 0.11 h. For the same substance, the “total protein half-life in vivo” value [5] was 5.66 ± 0.13 h, the “total protein half-life in vivo” value [6] was 3.19 h and the “total protein half-life in vivo” value [8] was 14.6 ± 1.6 h. For the same substance, the “total protein half-life in vivo” value [9] was 5.98 ± 0.52 h, the “total protein half-life in vivo” value [10] was 14.08 ± 0.14 h and the “total protein half-life in vivo” value [11] was 6.13 ± 0.39 h. For the same substance, the “total protein half-life in vivo” value [12] was 12.4 ± 3.3 h.
With “MKRYTPDFPEMMRLCEMNFSQLRRLLPRNDAPGETVSYQVANAQYRLTIVESTRYTTLVTIEQTAPAISYWSLPSMTVRLYHDAMVAEVCSSQQIFRFKARYDYPNKKLHQRDEKHQINQFLADWLRYCLAHGAMAIPVY [P0ADU7]” the “total protein half-life in vivo” value [1] was 6.32 ± 0.34 h, the “total protein half-life in vivo” value [2] was 5.73 ± 0.49 h and the “total protein half-life in vivo” value [3] was 1.79 h. For the same substance, the “total protein half-life in vivo” value [4] was 2.11 ± 0.32 h, the “total protein half-life in vivo” value [5] was 2.25 ± 0.22 h and the “total protein half-life in vivo” value [7] was 2.76 ± 0.49 h. For the same substance, the “total protein half-life in vivo” value [9] was 2.03 h, the “total protein half-life in vivo” value [10] was 2.84 h and the “total protein half-life in vivo” value [11] was 3.67 ± 0.23 h. The “total protein half-life in vivo” value [12] was 7.5 ± 0.71 h.
